Measured values reported in the supplement of paper PMC9732359.
± gives the uncertainty stated by the source.

Test: protein stability index of a GFP-peptide fusion (yeast GPS) (PSI 1-4); higher = more stable; sorted into four equal gates, so the index is relative within each strain
Summary of the method: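 Sequencing reads from sorted gates were used to score each peptide. The library consisted of tiled 17-residue yeast protein peptides fused downstream of GFP on a Cherry-expressing plasmid, pooled and carried in yeast. Mid-log cultures in leucine-free medium were split into four equal gates by GFP/Cherry ratio, and each gate's plasmids were PCR-amplified and Illumina-sequenced. The protein stability index adds up, over all gates, the read frequency multiplied by the gate number.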

Row | Sequence | protein stability index (doa10∆) | protein stability index (pdr5∆) | protein stability index (san1∆) | protein stability index (ubr1∆)
1 | QFSYVDSSMTTVQENEL [AAR2] | 2.62 ± 0.044 | 2.99 ± 0.05 | 2.98 ± 0.04 | 2.95 ± 0.052
2 | QFTKVIDEPIKSIMDGI [FAS1] | 1.86 ± 0.047 | 2.27 ± 0.078 | 2.54 ± 0.16 | 1.49 ± 0.072
3 | QFVDMVLPNTALKTSIQ [FAS1] | 2.5 ± 0.091 | 1.61 ± 0.05 | 1.58 ± 0.12 | 1.28 ± 0.039
4 | QGDVEQIAAQSPVELSR [SMC1] | 2.66 ± 0.087 | 2.92 ± 0.067 | 3.08 ± 0.063 | 2.83 ± 0.073
5 | QGEEEELIALNLSEARL [RPB4] | 3.22 ± 0.12 | 3.53 ± 0.14 | 3.22 ± 0.078 | 3.26 ± 0.095
6 | QGGAMNKKSEQALDISK [SRP72] | 3.07 ± 0.067 | 3.12 ± 0.058 | 3 ± 0.043 | 3.07 ± 0.063
7 | QGLAMVEKYAPDVVRSL [RRP42] | 2.25 ± 0.15 | 2.47 ± 0.16 | 2.3 ± 0.15 | 2.72 ± 0.13
8 | QGMEGTVDLALFGSPPF [YMR129W/POM152] | 3.39 ± 0.079 | 3.41 ± 0.068 | 3.35 ± 0.076 | 3.21 ± 0.047
9 | QHDSSANEDEEEQLDAL [CSN12] | 3.55 ± 0.25 | 2.75 ± 0.21 | – | 3 ± 0.17
10 | QHHVTDADKLSFNCENF [YML031W/NDC1] | 2.45 ± 0.065 | 2.28 ± 0.053 | 2.3 ± 0.058 | 2.2 ± 0.058
11 | QIANEFNTQQGIKKHSL [YDL116W/NUP84] | 3.01 ± 0.055 | 3.3 ± 0.049 | 3.18 ± 0.04 | 3.11 ± 0.038
12 | QIDYKLESFQAVYNKLT [RPS7A] | 2.26 ± 0.043 | 2.4 ± 0.051 | 2.41 ± 0.063 | 2.85 ± 0.037
13 | QIGQVPLAPAPINLPPQ [SNF5] | 2.35 ± 0.08 | 2.47 ± 0.081 | 2.4 ± 0.14 | 2.5 ± 0.079
14 | QIISNAHNKPSLFSKIK [YAR002W/NUP60] | 2.94 ± 0.088 | 2.98 ± 0.093 | 2.77 ± 0.071 | 2.94 ± 0.058
15 | QIKEIKEVIELPVKHPE [RPT6] | 2.98 ± 0.074 | 3.13 ± 0.088 | 3.27 ± 0.078 | 3.2 ± 0.075
16 | QILIFAADTSIVEQDKS [YJL039C/NUP192] | 2.04 ± 0.13 | 2.44 ± 0.21 | 2.45 ± 0.18 | 2.54 ± 0.25
17 | QIMQLKKICNHPFVFEE [SNF2] | 2.77 ± 0.075 | 2.38 ± 0.053 | 2.53 ± 0.063 | 2.55 ± 0.059
18 | QITIEPGVDVEVVVASN [RPS20] | 2.53 ± 0.061 | 2.57 ± 0.099 | 3.01 ± 0.098 | 2.51 ± 0.066
19 | QKKILSIRLKVPPTIAQ [RPL8A] | 1.53 ± 0.037 | 1.66 ± 0.037 | 1.5 ± 0.06 | 1.69 ± 0.029
20 | QKKNFLFKPLNKTLTLD [ARP7] | 2.83 ± 0.093 | 2.45 ± 0.14 | 2.08 ± 0.25 | 1.89 ± 0.26
21 | QKKRVVDPFTRKEWFDI [RPS1A] | 2.77 ± 0.15 | 3.1 ± 0.18 | 3.03 ± 0.08 | 3.13 ± 0.13
22 | QKLDILVAKLKKVKSAS [SMC4] | 2.64 ± 0.076 | 2.25 ± 0.051 | 2.61 ± 0.071 | 2.73 ± 0.045
23 | QKLHKVKKASGEIVSIN [RPL20A] | 2.98 ± 0.076 | 2.61 ± 0.057 | 3.07 ± 0.042 | 2.8 ± 0.056
24 | QKNYADPEKDSINATAL [SIN4] | 1.9 ± 0.042 | 1.71 ± 0.047 | 1.61 ± 0.087 | 1.59 ± 0.032
25 | QKSSKENIENEEYVINL [ECM29] | 3.02 ± 0.1 | 3.32 ± 0.086 | 2.75 ± 0.082 | 3.02 ± 0.082
26 | QKTVFDELCKLVTCEGS [SRP54] | 1.19 ± 0.1 | 1.48 ± 0.091 | 1.25 ± 0.18 | 1.14 ± 0.086

Row | Sequence | protein stability index (doa10∆) | protein stability index (pdr5∆) | protein stability index (san1∆) | protein stability index (ubr1∆)
27 | QKVFVRSRNGGATKIVR [DIS3] | 2.33 ± 0.085 | 1.59 ± 0.11 | 2.88 ± 0.1 | 2.45 ± 0.21
28 | QLDSDANKLSKSHSTVS [ISW2] | 3.04 ± 0.063 | 2.85 ± 0.075 | 3 ± 0.13 | 3.06 ± 0.074
29 | QLEGFESRKAFFLGYMI [RPB2] | 1.22 ± 0.088 | 2.42 ± 0.075 | 1.41 ± 0.079 | 2.49 ± 0.045
30 | QLEYKRGEIREIEQVCK [MED7] | 1.49 ± 0.11 | 1.53 ± 0.069 | 2.2 ± 0.18 | 1.45 ± 0.07
31 | QLGPQTPAFNTAILQRQ [ECM29] | 1.39 ± 0.21 | 1.49 ± 0.17 | 1.41 ± 0.17 | 1.67 ± 0.21
32 | QLIKVAVHNGDRKHVAA [RPL9B] | 2.09 ± 0.054 | 2.48 ± 0.059 | 2.28 ± 0.061 | 2.65 ± 0.027
33 | QLILSDVDPEFYLKYVD [RET1] | 3.25 ± 0.23 | 2.95 ± 0.15 | 2.72 ± 0.12 | 2.92 ± 0.12
34 | QLKFEGFALNSDIVFIH [BRR2] | 1.87 ± 0.064 | 1.71 ± 0.061 | 2.06 ± 0.065 | 1.81 ± 0.036
35 | QLKTGLAAIVSTVIEEF [YGL172W/NUP49] | 2.93 ± 0.094 | 2.79 ± 0.08 | 2.83 ± 0.1 | 3.04 ± 0.076
36 | QLKWAQNTIDDTEMKMK [YIL149C/MLP2] | 2.15 ± 0.046 | 2.88 ± 0.056 | 2.71 ± 0.059 | 2.74 ± 0.059
37 | QLNCIDTQFTKLLDDNP [SRB8] | 2.44 ± 0.074 | 2.7 ± 0.068 | 2.57 ± 0.065 | 2.9 ± 0.048
38 | QLNKVVDQLFEKASVLY [RPN6] | 2.55 ± 0.051 | 2.06 ± 0.052 | 2.62 ± 0.05 | 2.43 ± 0.055
39 | QLPSKFTCSCNSLTVDG [RPN14] | 2.2 ± 0.06 | 2.39 ± 0.062 | 2.17 ± 0.052 | 2.17 ± 0.036
40 | QLVEITEQIKMRILSND [SRB8] | 2.49 ± 0.045 | 2.45 ± 0.043 | 2.44 ± 0.043 | 2.48 ± 0.034
41 | QLYEDLCRYEDTLSKLV [MED4] | 2.62 ± 0.097 | 2.67 ± 0.16 | 2.75 ± 0.27 | 3.25 ± 0.09
42 | QMDGFDNLGQTKIIMAT [RPT4] | 3.54 ± 0.091 | 3.55 ± 0.11 | 3.66 ± 0.082 | 3.48 ± 0.098
43 | QMPLNSNGGNNMLPQRQ [SNF2] | 2.41 ± 0.047 | 2.79 ± 0.053 | 2.39 ± 0.064 | 2.54 ± 0.043
44 | QNCWSLINDSYINDVHL [SSN8] | 3.35 ± 0.063 | 3.22 ± 0.069 | 3.34 ± 0.054 | 3.23 ± 0.055
45 | QNDTPMFKLGNFESPVL [YLR018C/POM34] | 2.08 ± 0.066 | 2.48 ± 0.059 | 2.62 ± 0.05 | 2.29 ± 0.034
46 | QNKKNLKWVAVVPDLGH [SSN2] | 2.67 ± 0.085 | 3.07 ± 0.051 | 2.81 ± 0.07 | 3.02 ± 0.1
47 | QNNFHVLIDLLNWFRTT [RGR1] | 1.99 ± 0.064 | 2.17 ± 0.074 | 2.67 ± 0.053 | 2.47 ± 0.09
48 | QNNTTKFHSELQYLDKH [RPN12] | 2.81 ± 0.1 | 3 ± 0.095 | 2.39 ± 0.26 | 3.17 ± 0.061
49 | QNPKLFQTIFSKQDLIH [SIN4] | 2.43 ± 0.058 | 2.02 ± 0.046 | 2.02 ± 0.085 | 2.02 ± 0.051
50 | QNPLPTRFEVELEFIQS [SOH1] | 2.38 ± 0.083 | 2.39 ± 0.073 | 2.29 ± 0.084 | 2.83 ± 0.078
51 | QNVTSETHSKKRKKEAN [ITC1] | 2.92 ± 0.075 | 3.02 ± 0.075 | 2.94 ± 0.041 | 3.08 ± 0.073
52 | QPGYADLEHKEDCVEEF [QCR6] | 2.42 ± 0.058 | 2.56 ± 0.068 | 2.52 ± 0.074 | 2.68 ± 0.044
